Results from the DeepSol protein solubility set.

Experiment: soluble on expression in E. coli; label from the status in PepcDB or PDB records

Row | Sequence | soluble on expression in E. coli
1 | MRGSHHHHHHGLVPRGSMKITVLGCGALGQLWLTALCKQGHEVQGWLRVPQPYCSVNLVETDGSIFNESLTANDPDFLATSDLLLVTLKAWQVSDAVKSLASTLPVTTPILLIHNGMGTIEELQNIQQPLLMGTTTHAARRDGNVIIHVANGITHIGPARQQDGDYSYLADILQTVLPDVAWHNNIRAELWRKLAVNCVINPLTAIWNCPNGELRHHPQEIMQICEEVAAVIEREGHHTSAEDLRDYVMQVIDATAENISSMLQDIRALRHTEIDYINGFLLRRARAHGIAVPENTRLFEMVKRKESEYERIGTGLPRPW | soluble
2 | MGSDKIHHHHHHMVEPMTPRFKYTKASQENIQQLGNILEQCFVMSFGDSEIYVKGIGLENFRVIYREQKVAGGLAILPMGQWWGGQRVPMAGIAAVGIAPEYRGDGAAIALIQHTLQEISEQDIPISVLYPATQRLYRKAGYEQAGSSCVWEIPTDSIQIQHASLPLEPVVLKNNPIFHELYQQQAQLTHGYLDRHPAIWQGLNRTLDTETLYSYLIGDKDKPQGYIIFTQERTRDGSILRIRDWVTLSNPAVQSFWTFIANHRSQIDKVTWKSSVIDALTLLLPEQSATIRSQDRWMLRIVNVCKALEARGYPLGVEAELHLEVQDDLLATNQGKFILSVANGKSEVTKGGKGELQLDIKGLASLYTSLFTPRQLQLTGKLQATETALLKATQIFAGESPWMIDFF | not soluble
3 | MGSDKIHHHHHHMSLSRNSDLHMHSTASDGGYSPTELMEKCHQANLKFVALTDHDTVNGIEEAKQTAHRLGFILIPGIELSTKASGQSVHMLGYGIDWKNDTLKRRLDRQQDIRKQRLEQILLKLKAAGVPLEQDAVLRYADGGAIGRPHVAKALMDKGYVRSVQEAFEHYLAEGRPCYVKRQEYISVEQAIAWIHQAGGVAIVAHPGYYDLDDQLIGWVREYGLDGIEVYHRDHSREVVAHYEQLCKRMEAETGRRLLRTGGSDFHHESYGRTAAPLGTTRIPDQLTYELLHDLERKKTRA | not soluble
4 | MTKQAEETQKPIIFAPETYQYDKFTLNEKQLTDDPIDLFTKWFNEAKEDPRETLPEAITFSSAELPSGRVSSRILLFKELDHRGFTIYSNWGTSRKAHDIATNPNAAIVFFWKDLQRQVRVEGITEHVNRETSERYFKTRPRGSKIGAWASRQSDVIKNREELDELTQKNTERFKDAEDIPCPDYWGGLRIVPLEIEFWQGRPSRLHDRFVYRRKTENDPWKVVRLAP | soluble
5 | MGTGQRKDPSQQRSQETVARILSATGQVLRAKGYTGCSTNAIAEAAGISKGSVYQYFANKDEIIEVLIDKIMEETTATFGTQLEQAVAKGTFLKDAALQSQLLAVLDRYCDILGSLLNDAPHLALTAHRSVRIEERCRDLLRTYVTLNPSAIGPGVDLEALLLVLTVSYREVSLEYLRRDLRDRRNELATVLYDMTMGGLAGRVTRGV | not soluble
6 | MQEIEQRIYLAATYDTKGEEAEYLRQLLRRDGVMVVTVDVATSGQGSPAMVSAQEVAACYPQGAQAVFTGERGSAIVAMALAFERYLAGQRDVGAVLGIGGSGGTALVTPAMRALPVGVPKLMVSTMASGNVAPYVGPSDIAMMYSVTDVAGLNRISRRVLANAAGAIAGAFRQARQPIADDGRPAVGITMFGVTTPCVQHVTAALHDRYDCLVFHATGTGGQSMEKLADSGLLAGVLDLTTTEVCDFLFGGVLACTDDRFGAIARSGVPYVGSCGALDMVNFGALDTVPAACRERLLYPHNPQVTLMRTTAQENARQGAWIAERLNRCEGQVRFLIPEGGVSALDAPGQAFYDEAADAALFQALYDHVRQTDRRRLVRVPCHINDPLFARAAVEQFHEISQ | not soluble
7 | LESLEVMIMLDTLRAINNPLNDYALVALLRSPMFNFNEDDLTRIAVQADKGQFYDKLLAAHTKSGLHPEVVMQGLEAKLTLFTETLADWRDYSKCHSIYDLIWKIYNDRFYYDYVGGLPRAEQRQANLYALALRANAYEKTGFKGLSRFIGMI | not soluble
8 | MGSDKIHHHHHHMDKAGKETPFWVQKTLAQLNAHEWEALCDRCGLCCLVKAEDEEAGDIYLTSLICPFFDLKTKVCSCYSQRKQQNPDCSTLTPMTVQTYDWLPDHCAYRLVAAGKPLPTWHPLISGRHDTVVNVMNYFKGVKIRHLQPHSDLEDYLILDPPEG | not soluble
9 | MGSDKIHHHHHHMNQEQNDIAIRVSNLSKCYHIYDTPRDRLKQFILPRLHHLTGQTPRQYFREFWALRDVSFEVKKGETIGIIGRNGSGKSTLLQMICGTLNPTSGSITTYGRIAALLELGSGFNPEFTGRENVYMNASVLGLSQEETDARFDDIAAFADIGEFIEQPVKTYSSGMMVRLGFAVQAQVKPDILIVDEALAVGDAKFQAKCFDRLQQLKDGGTSILLVTHSSEQIVTHCSEAILLDGGDVIEHGEPRYVVNHYMDLLFGKERKSYSASAFSTESNSVEPTQDDNLSLNFIDDVFSSHANYNEHEYRWGDGTATILDFYLLTDNEPYPSVITSGQSVVLGVAVRFYEDLVRPILGITIKTKEGVTVYGVNSETLETDEIKVLGSKGTTALIKAEFICRLAPGDYFISLGLATRKGEEIVPHDRRYDAIYLQIAPVTKFFGLVDLGLKLSAQNTSL | not soluble
10 | AIAHAASFRDCKAWQSDGLPLSSSSNEACKLYDAILSQYVTWRNDETLGGIEGCITSIKAADPDFVMGHVISTGLELVGTGSSVLRDERLASAVRRTVELADTQQLTSREKNHVKAVQLFSKGSVHRNLTFMFNG | soluble
11 | MGSDKIHHHHHHMSETTGLQLRSLIKASGDLEVSLVPVSIPEPGPDEVVVRVEATPINPSDLGLLFGAADMSSAKASGTPDAPVITAKVPEAAMKAMAGRLDESMPVGNEGAGTVIKAGSSDAAQALLGKTVAMIGGAMYAQYRLIKAADCLKLQDGTTAAEGASCFVNPLTALGMTETMKREGHKALVHTAAASNLGQMLNRICLKDGIDLVNIVRSEAQAKLLREIGAKYVVDSTAPTFLDDLTEALVKTGATIAFDAIGGGRLAGQILGCMEAAIGKTATGPYSRYGSNVLKQVYIYGSLDTKPTEIVRNFGFAWAAGGWLLFPFLQKIGAADAAKLRARVAAEIKTTFASRYTKVVSLKEALTLDAIAIYNKRATGEKYLIDPTK | not soluble
12 | MSTTAEETPTQALPTQTRTLTGWGRTAPTTAQVLSTPDVEVIARAVAQVAEQNESKPAHLQRGVIARGLGRSYGDPAQNAGGLVIDMNALNRIHRIDRDTHLVEVDAGVNLDQLMKAALPFGLWVPVLPGTRQVTIGGAIGSDIHGKNHHSAGSFGNHVVSLDLLTADGKVRTLTPKGGRNDPKGALFWATIGGMGLTGIILKATIKMTPTETAYFIADGDVTQTLDETIALHSDGSESNYEYSSAWFDAIAAPPKLGRAAISRGSLAKLDQLPAKLQKNPLAFDAPQLLTFPDVFPNGLANKFNFSMIGELWFRKSGTYRDKVQNLTQFYHPLDMFGEWNRAYGSNGFLQYQFVVPTTAVEEFKAIIRDIQKSGHYSFLNVFKLFGEGNQAPLSFPIPGWNICVDFRIKPGLNEFVTELDKRVLKFGGRLYTAKDSRTTAETFHAMYPRIDEWIATRRKYDPTNVFASDMSRRLEL | not soluble
13 | MANSLCFFSSPPTFCFQSPSKNPKPSHFFSTNDNTSSLVQKRELLQTSRSQSFEVKAANNNPQGTKPNSLVCANCEGEGCVACSQCKGGGVNLIDHFNGQFKAGALCWLCRGKKEVLCGDCNGAGFIGGFLSTFDE | soluble
14 | TPARDWNYTAPDGTVVEGWYYLPPQFDPSKKYPMLVYYYGGTSPINRTLEGHYSLAMYAAQGYVVYTLNPSGTTGYGQEYAARHVNAWGDRTADEIIGATKEFIRTHSFVNGKKVGCFGASYGGFMTQYLQTKTDIFAAAVSHAGISSISNYWGSGYWGMGYSTVASTDSYPWNNPDLYAGHSPLFRADKIHTPLLLLHGSVDTNVPTAESVNLYNALKILGREVEFIEFTEQDHFILEPERRIRWTNSICAWFARWL | not soluble
15 | MGSDKIHHHHHHMTIIAGTVVKGKQLGRKLGFPTANVDAKIHGLRNGVYGVLATVNHQFHLGVMNIGVKPTVGSNLEKTLEIFLFDFHRDIYGEKIECSILFKIREERRFDSLESLTKQIKKDISCVAKRFELIGIMAPNKKESLLSHQELNLPDLCFYKKCNNLYGVNRGVYNVIDNWFFEYGITQVAYRRIYILSFLSFLKEDNPKVSSKYIRFGAGGLADKLNRFISSYVEESEENILG | not soluble
